Results from US20240376151A1, “STAPLED PEPTIDES AND METHODS THEREOF” (FOG PHARMACEUTICALS, INC., priority 2022, published 2024).
Numbered stars: 1 amine (or outer) side, 2 acyl side, 3 side chain; on linkers, the order of the positions; unused ones are H or OH. Bridge positions count the residues as written; N and C are the ends. Ends that are not written are not given here. Phenylene(1,4-NHCOCH2)2 = O=C(C[*:1])Nc1ccc(NC(=O)C[*:2])cc1

Legend:
CDK2 = CDK2 (Homo sapiens, UniProt P24941); experiment: Phage Library Screening with NGS, CDK2; assay type: binding; set-up: Full length CDK2 (residues 1-298) with an N-terminal GST-3C-6×his-TEV tag; GST-3C-6×his-TEV (N, cleaved yes); made in house; host or cells: Sf9 (Bac-to-Bac baculovirus); conditions: for phage screen counts, Target Concentration 10: CDK2, target concentration 10; for phage screen counts, Target Concentration 30: CDK2, target concentration 30; for phage screen counts, Target Concentration 100: CDK2, target concentration 100; for phage screen counts, Target Concentration 300: CDK2, target concentration 300
PPIA = target: T1, PPIA (Homo sapiens, UniProt P62937); experiment: Phage Library Screening with NGS, PPIA; assay type: binding
T1 construct: Full length PPIA (residues 1-165) with an N-terminal 6×his-yBBR-TEV tag; 6×his-yBBR-TEV (N); made in house; host or cells: E. coli BL21 (DE3) CodonPlus RIPL
T1 sequence (P62937 whole entry, the tested form may be a part): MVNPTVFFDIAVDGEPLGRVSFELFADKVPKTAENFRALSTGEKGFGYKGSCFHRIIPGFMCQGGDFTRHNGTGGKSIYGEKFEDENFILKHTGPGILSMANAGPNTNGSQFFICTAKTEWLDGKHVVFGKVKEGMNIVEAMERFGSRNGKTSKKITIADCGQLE

[1] = CDK2, target concentration 1000, first column
[2] = CDK2, target concentration 1000, second column
[3] = target concentration 1000, first column
[4] = target concentration 1000, second column

Sequence	phage screen counts, Target Concentration 10 (CDK2)	phage screen counts, Target Concentration 30 (CDK2)	phage screen counts, Target Concentration 100 (CDK2)	phage screen counts, Target Concentration 300 (CDK2)	phage screen counts, Target Concentration 1000 (CDK2; [1])	phage screen counts, Target Concentration 1000 (CDK2; [2])	phage screen counts, Target Concentration 10 (PPIA)	phage screen counts, Target Concentration 30 (PPIA)	phage screen counts, Target Concentration 100 (PPIA)	phage screen counts, Target Concentration 300 (PPIA)	phage screen counts, Target Concentration 1000 (PPIA; [3])	phage screen counts, Target Concentration 1000 (PPIA; [4])
CLDAFFACER (linker 1-8 via Phenylene(1,4-NHCOCH2)2 (inferred); not fully specified (C-terminus))	0	0	0	4	7	408						
CLSAFFMCSS (linker 1-8 via Phenylene(1,4-NHCOCH2)2 (inferred); not fully specified (C-terminus))	0	0	0	0	90	50						
CLSAFFSCTY (linker 1-8 via Phenylene(1,4-NHCOCH2)2 (inferred); not fully specified (C-terminus))	29	0	0	0	111	330						
DPAWWECIVAALECSDR (linker 7-14 via Phenylene(1,4-NHCOCH2)2 (inferred))	0	0	0	62	76	90						
DPAWWHCSIAALECHTT (linker 7-14 via Phenylene(1,4-NHCOCH2)2 (inferred))	0	18	25	216	195	358						
DPAWWHCVIAALDCETQ (linker 7-14 via Phenylene(1,4-NHCOCH2)2 (inferred))	0	15	5	93	119	141						
DPAWWMCTIAAIECETT (linker 7-14 via Phenylene(1,4-NHCOCH2)2 (inferred))	0	0	73	973	909	998						
DPAWWRCSIAAMECHHD (linker 7-14 via Phenylene(1,4-NHCOCH2)2 (inferred))	0	0	13	39	119	102						
DPAWWRCSIAAVDCEMQ (linker 7-14 via Phenylene(1,4-NHCOCH2)2 (inferred))	0	0	0	93	238	217						
DPAWWRCSVAAIDCHWN (linker 7-14 via Phenylene(1,4-NHCOCH2)2 (inferred))	0	10	3	93	65	230						
DPAWWRCVVAALDCVDY (linker 7-14 via Phenylene(1,4-NHCOCH2)2 (inferred))	0	12	8	262	162	409						
PDCHVAAYICY							0	0	3	38	54	44
PECHVEAYFCE							0	0	0	0	24	22
PFCHIEAYYCW							0	0	0	14	46	22
PHDCHVNAWYC							0	0	0	26	21	45
PNCHLYAWECY							0	0	0	4	5	19
PNCHVEAWYCI							0	0	0	1	12	12
PNCHVEAYFCM							0	1	8	68	98	63
PNCHVMAYWCW							0	0	1	8	10	7
PTCHIDAWVCY							0	0	0	12	18	26
PTCHIHAYHCY							0	0	3	5	31	8
PTCHVQAWYCW							0	0	0	0	10	29
PYDCHIAAWMC							0	0	0	0	20	35
